Experimental data: publication PMC5320558, “The general PTS component HPr determines the preference for glucose over mannitol” (Scientific Reports, 2017)
One block for each molecule: values may come before it.

Tests used:
[1] = target: Untagged HPr (wild type) (E. coli) (UniProt P0AA04); assay: SPR; HPr immobilised on a CM5 sensor chip, various concentrations of MtlR applied; BIAcore 3000; BIAevaluation, assuming a 1:1 interaction
[2] = target: Untagged HPr (wild type) (E. coli) (UniProt P0AA04); assay: SEC; gel filtration on Superose 12 10/300 GL of MtlR alone, HPr alone and their mixture; fractions analysed by SDS-PAGE
[3] = target: the molecule itself; assay: as above

Kd [1]: 62.2 nM | stoichiometry N [2]: 1 HPr:MtlR
Molecule: Untagged MtlR (mannitol operon repressor) (from UniProt P0AF10 1-195) (natural protein)

B1: Untagged MtlR (mannitol operon repressor) (natural protein, E. coli, UniProt P0AF10 1-195, looked up)
chain: MVDQAQDTLRPNNRLSDMQATMEQTQAFENRVLERLNAGKTVRSFLITAVELLTEAVNLLVLQVFRKDDYAVKYAVEPLLDGDGPLGDLSVRLKLIYGLGVINRQEYEDAELLMALREELNHDGNEYAFTDDEILGPFGELHCVAALPPPPQFEPADSSLYAMQIQRYQQAVRSTMVLSLTELISKISLKKAFQK
notes: MtlR, transcriptional repressor of the mtl operon, E. coli; monomer approximately 22.0 kDa; Eluted as a tetramer in gel filtration; source: overexpressed, purified (MonoQ, Superdex 75)
stoichiometry N [3]: 4
